# Source: publication PMC2694808
# “And” between values parts separate entries of the source, which are not always exact repeats. Equal values may be shown once.
# System: Hfq
# Experiment: EMSA
# Settings: 40 or 100 mM NH4Cl, 10 mM Tris-HCl pH 7.5, 5 mM Mg acetate, 0.1 mM DTT, 37°C (EMSA 10 min; SPR Biacore 2000)
substance,measurement,value
invE RNA probe (140 nt),K half,1.7 nM and 6.2 nM
